We go through one substance from patent US20130115216A1.

Assay [1] addresses HLA-A2 (HLA-A*0201) (human). Put plainly: assembly assay, HLA-A2 recovery from T2 cell lysate.
The target of assay [2] is HLA-A2 (HLA-A*0201) (human). Put plainly: assembly assay, HLA-A2 recovery from TAP-deficient cell lysate.

With “C1 (HIV-1 pol476-484) (peptide; other documents disagree on this pair)”, the figures for the C50 in assay [1] and in assay [2] were 0.7 µM and 0.2 µM, respectively.
